The values that follow are results of earlier work, collected in paper PMC8175380.

pKd: −log10 of the molar value.

The target in data set [1] is MDM2 (Homo sapiens) (UniProt Q00987). The data set is described as follows: SPR. Background: SPR reads the build-up and loss of mass on a sensor chip optically.
Data set [2] addresses EED (Homo sapiens) (UniProt O75530). The data set is described as follows: ITC.

Chain of EED (Homo sapiens) (O75530 2-441): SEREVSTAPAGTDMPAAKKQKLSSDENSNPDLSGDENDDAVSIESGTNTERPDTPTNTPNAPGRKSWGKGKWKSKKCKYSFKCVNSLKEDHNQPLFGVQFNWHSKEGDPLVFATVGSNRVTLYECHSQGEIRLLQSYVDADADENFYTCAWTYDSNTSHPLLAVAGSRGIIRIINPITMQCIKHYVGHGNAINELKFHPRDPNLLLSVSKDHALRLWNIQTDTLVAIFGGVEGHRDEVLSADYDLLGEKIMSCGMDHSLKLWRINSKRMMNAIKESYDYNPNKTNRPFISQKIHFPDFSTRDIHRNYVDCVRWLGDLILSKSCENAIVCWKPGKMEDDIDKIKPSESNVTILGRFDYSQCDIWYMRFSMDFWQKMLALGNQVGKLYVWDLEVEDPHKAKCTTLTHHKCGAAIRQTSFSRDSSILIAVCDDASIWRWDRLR
Chain of MDM2 (Homo sapiens) (Q00987 whole entry): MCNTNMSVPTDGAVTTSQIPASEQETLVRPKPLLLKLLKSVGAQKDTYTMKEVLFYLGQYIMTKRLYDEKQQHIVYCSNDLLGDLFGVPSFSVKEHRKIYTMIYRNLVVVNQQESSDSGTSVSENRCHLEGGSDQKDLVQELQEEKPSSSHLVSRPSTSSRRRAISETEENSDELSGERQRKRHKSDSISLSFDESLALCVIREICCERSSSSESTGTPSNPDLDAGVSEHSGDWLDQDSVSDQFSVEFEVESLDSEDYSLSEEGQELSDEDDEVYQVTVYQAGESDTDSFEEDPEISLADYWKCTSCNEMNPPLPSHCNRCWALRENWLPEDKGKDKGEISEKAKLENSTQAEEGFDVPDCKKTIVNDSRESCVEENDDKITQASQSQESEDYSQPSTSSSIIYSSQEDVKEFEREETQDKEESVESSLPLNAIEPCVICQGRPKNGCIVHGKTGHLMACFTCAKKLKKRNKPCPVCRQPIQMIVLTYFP
Chain of EZH2 peptide aptamer (Q15910 whole entry): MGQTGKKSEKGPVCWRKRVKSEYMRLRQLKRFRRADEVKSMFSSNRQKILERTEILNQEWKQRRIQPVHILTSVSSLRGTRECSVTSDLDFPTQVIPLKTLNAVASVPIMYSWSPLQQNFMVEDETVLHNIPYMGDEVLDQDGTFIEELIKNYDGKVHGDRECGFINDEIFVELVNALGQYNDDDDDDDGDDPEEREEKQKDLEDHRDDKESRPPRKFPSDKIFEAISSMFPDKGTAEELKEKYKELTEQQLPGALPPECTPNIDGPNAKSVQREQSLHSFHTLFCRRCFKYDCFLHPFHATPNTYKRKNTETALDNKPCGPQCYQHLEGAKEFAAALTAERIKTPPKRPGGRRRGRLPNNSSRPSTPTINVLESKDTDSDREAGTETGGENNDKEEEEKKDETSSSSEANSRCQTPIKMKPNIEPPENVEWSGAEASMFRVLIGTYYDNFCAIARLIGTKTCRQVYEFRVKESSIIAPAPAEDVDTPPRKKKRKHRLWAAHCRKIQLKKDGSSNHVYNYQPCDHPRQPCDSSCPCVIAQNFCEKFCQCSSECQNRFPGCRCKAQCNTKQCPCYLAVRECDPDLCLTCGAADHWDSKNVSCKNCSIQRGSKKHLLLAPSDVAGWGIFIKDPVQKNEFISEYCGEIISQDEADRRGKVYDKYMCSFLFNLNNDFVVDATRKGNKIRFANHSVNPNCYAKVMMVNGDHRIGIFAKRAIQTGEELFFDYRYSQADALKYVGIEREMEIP

The term pKd denotes −log10 of the Kd, conventionally taken in molar units. In the case of “p53 peptide aptamer (from UniProt P04637)”, in data set [1], the pKd was 6.85.
As to “EZH2 peptide aptamer (from UniProt Q15910)”, the pKd in data set [2] is 6.42.
